# Reference: publication PMC10823522, “Antibodies Raised Against an Aβ Oligomer Mimic Recognize Pathological Features in Alzheimer’s Disease and Associated Amyloid-Disease Brain Tissue” (ACS Central Science, 2023)
# B1: Lecanemab: anti-Aβ antibody drug (antibody, chains of the INN, looked up, V domains shown)
# VH: EVQLVESGGGLVQPGGSLRLSCSASGFTFSSFGMHWVRQAPGKGLEWVAYISSGSSTIYYGDTVKGRFTISRDNAKNSLFLQMSSLRAEDTAVYYCAREGGYYYGRSYYTMDYWGQGTTVTVSS
# VL: DVVMTQSPLSLPVTPGAPASISCRSSQSIVHSNGNTYLEWYLQKPGQSPKLLIYKVSNRFSGVPDRFSGSGSGTDFTLRISRVEAEDVGIYYCFQGSHVPPTFGPGTKLEIK
# B2: Donanemab: anti-Aβ antibody drug (antibody, chains of the INN, looked up, V domains shown)
# VH: QVQLVQSGAEVKKPGSSVKVSCKASGYDFTRYYINWVRQAPGQGLEWMGWINPGSGNTKYNEKFKGRVTITADESTSTAYMELSSLRSEDTAVYYCAREGITVYWGQGTTVTVSS
# VL: DIVMTQTPLSLSVTPGQPASISCKSSQSLLYSRGKTYLNWLLQKPGQSPQLLIYAVSKLDSGVPDRFSGSGSGTDFTLKISRVEAEDVGVYYCVQGTHYPFTFGQGTKLEIK
# Columns and labels:
# [1] = molecular target: 2AT-L, covalently stabilized triangular trimer composed of three Aβ17-36 β-hairpin peptides (2AM-LCC); test: crystal structure; X-ray crystallographic structure of 2AT-L at 1.8 Å; assembly seen in the crystal lattice
# [2] = molecular target: 2AT-L, covalently stabilized triangular trimer composed of three Aβ17-36 β-hairpin peptides (2AM-LCC); test: SDS-PAGE; silver stained; Tris buffer at pH 6.8 with 2% (w/v) SDS; 5.0, 2.5, 1.25 and 0.6 μg of 2AT-L or 2AM-L in each lane
# [3] = ThT aggregation assay of Aβ42; format: physicochemical; conditions: 6.25 μM Aβ42 in PBS pH 7.4, 10 μM ThT, 25 °C, quiescent; ex 440 nm, em 485 nm
# Method: Figure 3 In vitro characterization of pAb2AT-L with 2AT-L and 2AM-L and Aβ42. (A) Indirect ELISA of pAb2AT-L against 2AT-L, 2AM-L, and BSA. (B) Western blot analysis of pAb2AT-L against a concentration gradient of 2AT-L. SDS-PAGE was performed on a 16.5% Tris-Tricine gel (Bio-Rad); 10 μL was loaded in each lane. (C) Indirect ELISA of pAb2AT-L and 6E10 against Aβ42. (D and E) Western blot analysis of pAb2AT-L (D) and 6E10 (E) against a concentration gradient of Aβ42. SDS-PAGE was performed on a 16.5% Tris-Tricine gel (Bio-Rad); 10 μL was loaded in each lane. (F and G) Dot blot analysis of pAb2AT-L (F) and 4G8 (G) against 6.25 μM Aβ42 aggregated over time in PBS. A 1 μL portion of the Aβ42 solution was spotted in triplicate on 0.2 μm nitrocellulose membranes every 30 min for 5 h and then at 96 h. (H and I) Average integrated spot density from the dot blots in F and G. Integrated density for each spot was determined using ImageJ. (J and K) Change in integrated spot density from the 0-h time point. (L) ThT aggregation assay of 6.25 μM Aβ42. The ThT assay was performed at 25 °C under quiescent conditions in PBS (10 mM Na2HPO4, 1.8 mM KH2PO4, 137 mM NaCl, 2.7 mM KCl) at pH 7.4 containing 10 μM ThT. ThT fluorescence was monitored at 440 nm excitation and 485 nm emission. […]
# SDS-PAGE = format: physicochemical; conditions: Aβ42, 16.5% Tris-Tricine gel, 0.25–0.016 mM, 10 μL per lane
# cells = conditions: cited from earlier work
# Description: Like oligomers of full-length Aβ, 2AT-L is toxic toward cells in culture, eliciting toxicity by interacting with the cells and promoting membrane disruption and release of LDH, depleting ATP, and activating caspase-3/7-mediated apoptosis.
# Aβ and its aggregates = conditions: cited from earlier work
# Description: The 6E10 and 4G8 monoclonal antibodies—among the most extensively used Aβ antibodies in Alzheimer’s disease research—were generated by immunizing mice with a peptide fragment that encompassed the N-terminal half of Aβ (Aβ1–24).[58],[59]
# [4] = system: Aβ protofibrils in brain and cerebrospinal fluid; conditions: Alzheimer's disease transgenic mice; cited from earlier work
# Description: Antibodies that target monomeric, oligomeric, and fibrillar forms of the β-amyloid peptide (Aβ) are valuable tools for Alzheimer’s disease research and have emerged as Alzheimer’s disease therapies.[4],[5] […] These antibodies act by binding Aβ aggregates and facilitating their clearance from the brain, mitigating both the direct and downstream damaging eff ...
molecule,measurement,setting,value
"2AT-L, covalently stabilized triangular trimer composed of three Aβ17-36 β-hairpin peptides (2AM-LCC) (complex)",stoichiometry N (copies of 2AT-L),[1],4
same,stoichiometry N (copies of 2AT-L),[2],4
Aβ42: 42-amino-acid alloform of Aβ,time at which ThT-reactive aggregates begin to form,[3],1 h
same,time at which ThT-reactive aggregates plateau,[3],1.75 h
same,predominant oligomers on SDS-PAGE,SDS-PAGE,migrate at a molecular weight consistent with a trimer and tetramer
full-length Aβ: full-length β-amyloid peptide,ATP depletion by full-length Aβ,cells,ATP depletion
same,LDH release by full-length Aβ,cells,promotes LDH release
same,caspase-3/7 activation by full-length Aβ,cells,caspase-3/7 activation
B1,target selectivity of Lecanemab,Aβ and its aggregates,selectively targets Aβ protofibrils
same,Aβ protofibrils in brain and cerebrospinal fluid,[4],reduced Aβ protofibrils in the brain and cerebrospinal fluid
B2,target of Donanemab,Aβ and its aggregates,targets N-terminally pyroglutamated Aβ that is aggregated in Aβ plaques
